Reference: US20230019513A1

Target: murine Protein S (mouse) (UniProt Q08761)
Experiment: cell-based or functional assay

UniProt Q08761, sequence (Q08761 42-675): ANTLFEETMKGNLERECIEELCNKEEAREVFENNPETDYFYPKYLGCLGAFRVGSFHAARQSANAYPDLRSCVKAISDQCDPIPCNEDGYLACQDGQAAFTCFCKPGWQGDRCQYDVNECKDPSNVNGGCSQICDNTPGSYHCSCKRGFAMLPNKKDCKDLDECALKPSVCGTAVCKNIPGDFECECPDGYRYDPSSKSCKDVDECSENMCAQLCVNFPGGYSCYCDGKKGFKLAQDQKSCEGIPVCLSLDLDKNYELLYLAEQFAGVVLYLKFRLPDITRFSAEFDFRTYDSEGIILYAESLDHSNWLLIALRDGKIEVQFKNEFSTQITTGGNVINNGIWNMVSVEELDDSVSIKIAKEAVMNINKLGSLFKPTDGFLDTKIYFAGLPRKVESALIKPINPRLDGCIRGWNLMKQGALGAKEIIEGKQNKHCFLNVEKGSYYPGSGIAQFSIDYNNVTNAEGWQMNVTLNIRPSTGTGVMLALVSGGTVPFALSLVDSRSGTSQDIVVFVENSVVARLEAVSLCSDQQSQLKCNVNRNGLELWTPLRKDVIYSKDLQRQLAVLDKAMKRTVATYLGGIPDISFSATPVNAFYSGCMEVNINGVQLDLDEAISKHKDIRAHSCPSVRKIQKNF

Substance | reduction of ETP in Ca2+ ionophore-activated PRP of WT mice at 8 nM APC
mutated recombinant mouse APC (rmAPC L38D) (from UniProt P33587 42-460) (enzyme) | 30%
wild type recombinant mouse APC (wt-rmAPC) (from UniProt P33587 42-460) (enzyme) | 90%
